Measured values as given in article doi:10.1101/2020.07.24.219303.

Molecular target: ParA (pMF1.22) co-expressed with ParC from pET15b (Myxococcus fulvus 124B02 (plasmid pMF1))
Assay: SDS-PAGE band identified by mass spectrometry

stoichiometry N (ParC:ParA molar ratio): 1
Substance: ParC (pMF1.21) co-expressed in front of ParA from pET15b (natural protein)
